B1: ClpA (enzyme, E. coli, UniProt P0ABH9 1-758, looked up)
chain: MLNQELELSLNMAFARAREHRHEFMTVEHLLLALLSNPSAREALEACSVDLVALRQELEAFIEQTTPVLPASEEERDTQPTLSFQRVLQRAVFHVQSSGRNEVTGANVLVAIFSEQESQAAYLLRKHEVSRLDVVNFISHGTRKDEPTQSSDPGSQPNSEEQAGGEERMENFTTNLNQLARVGGIDPLIGREKELERAIQVLCRRRKNNPLLVGESGVGKTAIAEGLAWRIVQGDVPEVMADCTIYSLDIGSLLAGTKYRGDFEKRFKALLKQLEQDTNSILFIDEIHTIIGAGAASGGQVDAANLIKPLLSSGKIRVIGSTTYQEFSNIFEKDRALARRFQKIDITEPSIEETVQIINGLKPKYEAHHDVRYTAKAVRAAVELAVKYINDRHLPDKAIDVIDEAGARARLMPVSKRKKTVNVADIESVVARIARIPEKSVSQSDRDTLKNLGDRLKMLVFGQDKAIEALTEAIKMARAGLGHEHKPVGSFLFAGPTGVGKTEVTVQLSKALGIELLRFDMSEYMERHTVSRLIGAPPGYVGFDQGGLLTDAVIKHPHAVLLLDEIEKAHPDVFNILLQVMDNGTLTDNNGRKADFRNVVLVMTTNAGVRETERKSIGLIHQDNSTDAMEEIKKIFTPEFRNRLDNIIWFDHLSTDVIHQVVDKFIVELQVQLDQKGVSLEVSQEARNWLAEKGYDRAMGARPMARVIQDNLKKPLANELLFGSLVDGGQVTVALDKEKNELTYGFQSAQKHKAEAAH

Tests used:
cryo-EM structure = molecular target: the molecule itself; assay: cryo-EM structure
ClpA = molecular target: B1; assay: cryo-EM structure

Row | Binder | stoichiometry N (cryo-EM structure) | binding result (ClpA)
1 | B1 | 6 | –
2 | ClpP (enzyme) not shown | 14 | binds

Reference: paper PMC7529148 (Nature structural & molecular biology, 2020)
